T1: activin A (human, UniProt P08476 311-426)
T1 sequence: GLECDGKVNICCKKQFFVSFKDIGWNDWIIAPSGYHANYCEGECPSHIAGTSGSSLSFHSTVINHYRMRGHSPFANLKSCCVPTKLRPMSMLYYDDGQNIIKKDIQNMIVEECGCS

T2: myostatin (Homo sapiens (Human), UniProt O14793 267-375)
T2 sequence: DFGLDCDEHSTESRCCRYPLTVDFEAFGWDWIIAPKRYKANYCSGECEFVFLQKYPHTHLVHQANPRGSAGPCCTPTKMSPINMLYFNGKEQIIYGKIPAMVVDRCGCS

T3: GDF11 (Growth Differentiation Factor 11) (Homo sapiens (Human), UniProt O95390 299-407)
T3 sequence: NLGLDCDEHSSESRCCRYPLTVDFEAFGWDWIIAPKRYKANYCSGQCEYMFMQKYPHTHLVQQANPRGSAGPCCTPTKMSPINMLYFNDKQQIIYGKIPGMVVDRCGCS


Experiments:
[1] = molecular target: T1, activin A; assay: cell-based or functional assay
[2] = molecular target: T2, myostatin; assay: cell-based or functional assay
[3] = molecular target: T3, GDF11 (Growth Differentiation Factor 11); assay: cell-based or functional assay
[4] = molecular target: TNFα (Tumor Necrosis Factor alpha) (UniProt P01375 77-233); assay: SPR (Biacore 3000, 25 °C): compound captured to about 1,000 RU on a CM5 chip with the mouse antibody capture kit, TNFα injected for 120 s, 300 s dissociation; negative control
Description: (§1) Surface plasmon resonance (SPR) experiments were carried out on a Biacore 3000 (Cytiva). A CM5 chip for capture of the compounds was prepared according to the instructions of the mouse antibody capture kit (Cytiva, #BR100838). VGFR(½)-mFc-FSD1, TNFR2-mFc-FSD1, VGFR(½)/FST291-mFc, TNFR2/FST291-mFc, VGFR(½)-hFc (Aflibercept), TNFR2-hFc (Etanercept), and FST315dHBS-mFc (SEQ ID NO: 30, SEQ ID NO: 31) were captured to approximately 1,000 RU (Resonance Units). TNFα (R&D Systems, #210-TA-005,) or VEGF (R&D Systems, #293-VE-010) were then injected for 120 s followed by a 300 s dissociation phase. At the end of each binding cycle, non-covalently attached molecules were removed from both surfaces by a 180 s regeneration with 10 mM glycine, pH 1.7. All proteins were diluted in running buffer ([…], pH 7.5, […], 2 mM CaCl₂) and 0.05% Tween 20). A flow rate of 30 μl/min was used in all steps of the experiments. Binding analysis was performed at 25° C., and data were collected at a rate of 1 Hz. Using the BIAevaluation 4.1.1 software (Cytiva), recorded signals were referenced; the signal from the in-line reference flow cell was subtracted as was the signal from a blank run (0 nM analyte).

[5] = molecular target: VEGF (Vascular Endothelial Growth Factor) (UniProt P15692-4 27-191); assay: SPR (Biacore 3000, 25 °C): compound captured to about 1,000 RU on a CM5 chip with the mouse antibody capture kit, VEGF injected for 120 s, 300 s dissociation; negative control
Description: as §1

[6] = molecular target: T4, vimentin (endogenous, in HEK293 cells) (human (HEK293 cells), UniProt P08670 2-466); assay: confocal imaging of adherent HEK293 cells after 18 hours with 1 µM ATTO 488 labelled compound; the filing reads the filaments as vimentin; no vimentin co-stain on the sheet
T4 construct: whole, on cells; Intracellular filament protein, inside the cells and not on their surface
Description: (§2) After labeling, compound concentration was determined using the Pierce Coomassie (Bradford) Protein Assay Kit (Thermo Scientific, #23200).
Briefly, HEK293 cells were seeded on a cover slip glass (Thorlabs, #CG15NH) treated with poly-D-lysine (ThermoFisher, #A3890401) to promote adhesion. Cells were seeded in DMEM (ThermoFisher, #11995073) supplemented with 10% fetal bovine serum (FBS). After 24 hours, cells were washed with PBS and compounds (1 μM) were added in 100% DMEM without FBS. A control sample using 100% DMEM without added compound was also included. After 3 hours and 18 hours of incubation, cells were washed 3 times with PBS. […] Cells were then washed 3 times with PBS and fixed using 4% formalin for 30 minutes. Cover slips were mounted using ProLong Glass Antifade Mountant (ThermoFisher, #P36980). Confocal imaging was conducted using a Zeiss LSM800 laser scanning confocal microscope (Carl Zeiss Microscopy GmbH, Oberkochen, Germany) equipped with 2 GaAsP and one Airyscan detector and Zen Blue Edition software (Carl Zeiss Microscopy GmbH, version 2.5). Confocal images were taken with the PlanApo x63 Oil NA 1.4 objective. […] Lysotracker Red DND-99 was excited using a 561 nm diode laser at 2.60% (both 3-hour and 18-hour samples) and detected at wavelengths 575-700 nm. For each sample, a Z-stack was recorded with an interval of 0.270 μm (3-hour samples) or 0.170 μm (18-hour samples). […]

[7] = molecular target: T5, vimentin (endogenous, in mouse gastrocnemius muscle connective tissue cells) (mouse, UniProt P20152 2-466); assay: confocal imaging of sections of mouse gastrocnemius muscle 18 hours after intramuscular injection of 8 µg ATTO 488 labelled compound; the filing reads the filaments as vimentin; no vimentin co-stain on the sheet
T5 construct: whole, on cells; Intracellular filament protein, inside the cells and not on their surface
Description: as §2
Two 12-week-old female BALB/c mice were allocated for injection with either anti-vimentin-nanobody-FSD1 (type 1 compound, n=1) or anti-vimentin-nanobody (n=1). During anaesthesia, the right hind limb was shaved to expose the calf muscles. A single dose of 8 μg, fluorescently labeled compound was administered intramuscularly in a volume of 5 μl in the gastrocnemius muscle. Mice received a subcutaneous injection of pain relief (Carprofen 5 mg/kg) to counter any pain resulting from tension in the muscle. Eighteen hours after injection, the gastrocnemius muscle was dissected and immersion-fixed in 4% formaldehyde. The gastrocnemius muscle was ethanol dehydrated, embedded in paraffin, and sectioned at 4 μm thickness using a microtome. Sections were left unstained and mounted with DAPI containing mountant (#P36962, ProLong Diamond Antifade Mountant with DAPI) on microscope slides. […] DAPI was excited using a 405 nm diode laser at 1.00% and detected at wavelengths […]. For each sample, a Z-stack was recorded with an interval of 0.190 μm. […]

T4 sequence (P08670 2-466): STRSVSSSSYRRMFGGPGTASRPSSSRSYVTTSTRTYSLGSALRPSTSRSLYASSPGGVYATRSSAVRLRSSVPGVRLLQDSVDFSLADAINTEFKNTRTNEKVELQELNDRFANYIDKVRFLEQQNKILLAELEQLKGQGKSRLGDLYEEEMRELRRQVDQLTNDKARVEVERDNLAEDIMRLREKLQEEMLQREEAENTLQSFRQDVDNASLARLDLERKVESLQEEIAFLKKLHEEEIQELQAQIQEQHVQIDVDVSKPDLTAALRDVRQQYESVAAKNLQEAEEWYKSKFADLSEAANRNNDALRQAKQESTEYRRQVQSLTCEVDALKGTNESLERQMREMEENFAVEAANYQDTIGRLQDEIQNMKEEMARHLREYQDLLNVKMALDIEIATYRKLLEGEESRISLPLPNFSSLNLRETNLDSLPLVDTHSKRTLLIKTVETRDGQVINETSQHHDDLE
Sequence of VEGF (Vascular Endothelial Growth Factor) (P15692 other isoform, or with tags, fused parts or gaps limits assumed): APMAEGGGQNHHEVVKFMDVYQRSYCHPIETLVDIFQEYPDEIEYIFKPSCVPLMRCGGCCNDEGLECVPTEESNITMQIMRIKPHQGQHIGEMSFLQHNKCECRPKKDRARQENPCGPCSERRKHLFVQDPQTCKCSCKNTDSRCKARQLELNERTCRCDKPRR
T5 sequence (P20152 2-466): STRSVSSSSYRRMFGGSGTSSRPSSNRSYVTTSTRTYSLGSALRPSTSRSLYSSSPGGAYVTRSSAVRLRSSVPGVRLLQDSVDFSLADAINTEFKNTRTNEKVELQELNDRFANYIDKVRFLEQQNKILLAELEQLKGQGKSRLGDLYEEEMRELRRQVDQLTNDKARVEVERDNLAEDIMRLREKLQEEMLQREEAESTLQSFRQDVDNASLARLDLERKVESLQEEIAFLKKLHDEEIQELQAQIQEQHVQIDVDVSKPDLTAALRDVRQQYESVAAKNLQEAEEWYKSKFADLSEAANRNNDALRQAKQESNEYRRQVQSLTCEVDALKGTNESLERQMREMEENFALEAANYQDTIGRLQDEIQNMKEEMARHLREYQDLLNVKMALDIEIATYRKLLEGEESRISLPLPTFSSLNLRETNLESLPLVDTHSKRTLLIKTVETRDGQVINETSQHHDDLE
Sequence of TNFα (Tumor Necrosis Factor alpha) (P01375 77-233 limits assumed): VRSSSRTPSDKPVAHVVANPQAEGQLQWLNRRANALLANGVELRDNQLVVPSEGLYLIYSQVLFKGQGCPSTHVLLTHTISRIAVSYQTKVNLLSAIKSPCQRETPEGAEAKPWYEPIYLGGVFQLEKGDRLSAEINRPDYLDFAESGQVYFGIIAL

IC50, neutralisation of 1 ng/mL activin A (pSmad2/3 luciferase reporter, HEK293 cells) [1] [pM] | IC50, neutralisation of 1 ng/mL myostatin (pSmad2/3 luciferase reporter, HEK293 cells) [2] [pM] | IC50, neutralisation of 1 ng/mL GDF11 (pSmad2/3 luciferase reporter, HEK293 cells) [3] [pM] | binding result [5] | binding result [6] | binding result [7] | Binder | binding result [4]
47 | 225 | 205 | no binding (tested: 25 nM VEGF) |  |  | FST315dHBS-mFc (Fc fusion) GNCWLRQAKNGRCQVLYKTELSKEECCSTGRLSTSWTEEDVNDNTLFKWMIFNGGAPNCIPCKETCENVDCGPGSTCVVDQTNNPRCVCAPDCSNITWKGPVCGLDGKTYRNECALLKARCKEQPELEVQYQGRCKKTCRDVFCPGSSTCVVDQTNNAYCVTCNRICPEPASSEQYLCGNDGVTYSSACHLRKATCLLGRSIGLAYEGKCIKAKSCEDIQCTGGKKCLWDFKVGRGRCSLCDELCPDSKSDEPVCASDNATYASECAMKEAACSSGVLLEVKHSGSCNSISEDTEEEEEDEDQDYSFPISSILEWPRGPTIKPCPPCKCPAPNLLGGPSVFIFPPKIKDVLMISLSPIVTCVVVDVSEDDPDVQISWFVNNVEVHTAQTQTHREDYNSTLRVVSALPIQHQDWMSGKEFKCKVNNKDLPAPIERTISKPKGSVRAPQVYVLPPPEEEMTKKQVTLTCMVTDFMPEDIYVEWTNNGKTELNYKNTEPVLDSDGSYFMYSKLRVEKKNWVERNSYSCSVVHEGLHNHHTTKSFSRTPGK | no binding (tested: 50 nM TNFα)
 |  |  |  | binds | binds | anti-vimentin-nanobody-FSD1 (VHH, ATTO 488 fluorescent label, sites not stated, also called anti-vimentin-nb-FSD1; type 1 design compound) VHH: QVQLVESGGGLVQSGGSLTLTCAASGFTFSAASMRWVRQVPGKGLEWVATIDGTGANSYYSESAKGRFTISRDNARNTLYLQMNNLKPDDTAVYYCANFGRNYWGKGTQVTVSS | 

Source: patent US20260209291A1 (KAMINO, published 2026)
